Each block holds one binder with its values, some of them ahead of it. Non-standard residues stand in square brackets, D forms with d. No end group written: not given here.
How the values were obtained:
D101 (D33(A1K)K26S) = test: RP-HPLC temperature profiling (0.25% B/min gradient), Mix 2, self-association relative to RC
D103 (D34(A1K)K26S) = test: as above
D38 = test: RP-HPLC temperature profiling 5-77 C, pH 2, self-association (dimerization/oligomerization) relative to random coil control RC
human serum proteins = test: cell-based or functional assay
[1] = biological target: D85 (D84K3OrnK7OrnK11OrnK18OrnK22OrnK26Orn); test: RP-HPLC temperature profiling (0.25% B/min gradient), Mix 1, self-association relative to RC
D39 = test: RP-HPLC temperature profiling 5-77 C, pH 2, self-association (dimerization/oligomerization) relative to random coil control RC
D40 = test: as above
D88 (D34(A1K)) = test: RP-HPLC temperature profiling (0.25% B/min gradient), Mix 2, self-association relative to RC
D33 (D37(A13K/A16K)) = test: RP-HPLC temperature profiling 5-77 C, pH 2, self-association (dimerization/oligomerization) relative to random coil control RC
[2] = biological target: D87 (D84K3ArgK7ArgK11ArgK18ArgK22ArgK26Arg); test: RP-HPLC temperature profiling (0.25% B/min gradient), Mix 1, self-association relative to RC
[3] = biological target: D105 (D84K3DprK7DprK11DprK18DprK22DprK26Dpr); test: RP-HPLC temperature profiling (0.25% B/min gradient), Mix 4, self-association relative to RC
[4] = biological target: D105 (D84K3DprK7DprK11DprK18DprK22DprK26Dpr); test: RP-HPLC temperature profiling (0.25% B/min gradient), Mix 1, self-association relative to RC
D37 [5] = test: RP-HPLC temperature profiling 5-77 C, pH 2, self-association (dimerization/oligomerization) relative to random coil control RC
D37 [6] = test: RP-HPLC temperature profiling (0.25% B/min gradient), control AMP, self-association relative to RC
[7] = biological target: D106 (D88K3DprK7DprK14DprK15DprK22DprK26Dpr); test: RP-HPLC temperature profiling (0.25% B/min gradient), Mix 4, self-association relative to RC

PA (self-association parameter) (D101 (D33(A1K)K26S)): 7.2 min
Binder: Ac-KLKSLLKTLSKAKAAKLKTLLKALSS-NH2 (not fully specified; also: D-enantiomeric residues, extent not given here) [D101 (D33(A1K)K26S)]

PA (self-association parameter) (D103 (D34(A1K)K26S)): 7.2 min
Binder: Ac-KLKSLLKTLSAAKKKKLATLLKALSS-NH2 (not fully specified; also: D-enantiomeric residues, extent not given here) [D103 (D34(A1K)K26S)]

PA (self-association parameter) (D38): 19.5 min | MIC against A. baumannii strain 649 in 25% human serum (no serum: 0.7) (human serum proteins): > 92.8 µM
B1: D38 (peptide)
peptide: [dA][dL][dK][dS][dL][dL][dK][dT][dL][dS][dA][dA][dA][dK][dK][dA][dL][dA][dT][dL][dL][dK][dA][dL][dS][dK]-NH2
modifications: N-terminus assumed
SMILES: CC(C)C[C@@H](NC(=O)[C@@H](C)N)C(=O)N[C@H](CCCCN)C(=O)N[C@H](CO)C(=O)N[C@H](CC(C)C)C(=O)N[C@H](CC(C)C)C(=O)N[C@H](CCCCN)C(=O)N[C@@H](C(=O)N[C@H](CC(C)C)C(=O)N[C@H](CO)C(=O)N[C@H](C)C(=O)N[C@H](C)C(=O)N[C@H](C)C(=O)N[C@H](CCCCN)C(=O)N[C@H](CCCCN)C(=O)N[C@H](C)C(=O)N[C@H](CC(C)C)C(=O)N[C@H](C)C(=O)N[C@@H](C(=O)N[C@H](CC(C)C)C(=O)N[C@H](CC(C)C)C(=O)N[C@H](CCCCN)C(=O)N[C@H](C)C(=O)N[C@H](CC(C)C)C(=O)N[C@H](CO)C(=O)N[C@H](CCCCN)C(N)=O)[C@H](C)O)[C@H](C)O

PA (self-association parameter) [1]: 2.9 min
B2: D85 (D84K3OrnK7OrnK11OrnK18OrnK22OrnK26Orn) (peptide)
peptide: Ac-KLXSLLXTLSXAKAAKLXTLLXALSX-NH2
modifications: not fully specified (some residues); printed as Ac-KL(Orn)SLL(Orn)TLS(Orn)AKAAKL(Orn)TLL(Orn)ALS(Orn)-amide

PA (self-association parameter) (D39): 18.5 min | MIC against A. baumannii strain 649 in 25% human serum (no serum: 1.4) (human serum proteins): > 92.8 µM
B3: D39 (peptide)
peptide: [dA][dL][dK][dS][dL][dL][dA][dT][dL][dS][dK][dA][dA][dK][dK][dA][dL][dK][dT][dL][dL][dA][dA][dL][dS][dK]-NH2
modifications: N-terminus assumed
SMILES: CC(C)C[C@@H](NC(=O)[C@@H](C)N)C(=O)N[C@H](CCCCN)C(=O)N[C@H](CO)C(=O)N[C@H](CC(C)C)C(=O)N[C@H](CC(C)C)C(=O)N[C@H](C)C(=O)N[C@@H](C(=O)N[C@H](CC(C)C)C(=O)N[C@H](CO)C(=O)N[C@H](CCCCN)C(=O)N[C@H](C)C(=O)N[C@H](C)C(=O)N[C@H](CCCCN)C(=O)N[C@H](CCCCN)C(=O)N[C@H](C)C(=O)N[C@H](CC(C)C)C(=O)N[C@H](CCCCN)C(=O)N[C@@H](C(=O)N[C@H](CC(C)C)C(=O)N[C@H](CC(C)C)C(=O)N[C@H](C)C(=O)N[C@H](C)C(=O)N[C@H](CC(C)C)C(=O)N[C@H](CO)C(=O)N[C@H](CCCCN)C(N)=O)[C@H](C)O)[C@H](C)O

PA (self-association parameter) (D40): 18.7 min | MIC against A. baumannii strain 649 in 25% human serum (no serum: 2.9) (human serum proteins): > 92.8 µM
B4: D40 (peptide)
peptide: [dA][dL][dA][dS][dL][dL][dK][dT][dL][dS][dK][dA][dA][dK][dK][dA][dL][dK][dT][dL][dL][dK][dA][dL][dS][dA]-NH2
modifications: N-terminus assumed
SMILES: CC(C)C[C@@H](NC(=O)[C@@H](C)N)C(=O)N[C@H](C)C(=O)N[C@H](CO)C(=O)N[C@H](CC(C)C)C(=O)N[C@H](CC(C)C)C(=O)N[C@H](CCCCN)C(=O)N[C@@H](C(=O)N[C@H](CC(C)C)C(=O)N[C@H](CO)C(=O)N[C@H](CCCCN)C(=O)N[C@H](C)C(=O)N[C@H](C)C(=O)N[C@H](CCCCN)C(=O)N[C@H](CCCCN)C(=O)N[C@H](C)C(=O)N[C@H](CC(C)C)C(=O)N[C@H](CCCCN)C(=O)N[C@@H](C(=O)N[C@H](CC(C)C)C(=O)N[C@H](CC(C)C)C(=O)N[C@H](CCCCN)C(=O)N[C@H](C)C(=O)N[C@H](CC(C)C)C(=O)N[C@H](CO)C(=O)N[C@H](C)C(N)=O)[C@H](C)O)[C@H](C)O

PA (self-association parameter) (D88 (D34(A1K))): 6.9 min
B5: D88 (D34(A1K)) (peptide)
peptide: Ac-KLKSLLKTLSAAKKKKLATLLKALSK-NH2
modifications: not fully specified; printed as Ac-KL(Lys)SLL(Lys)TLSAAK(Lys)(Lys)KLATLL(Lys)ALS(Lys)-amide; also: D-enantiomeric residues, extent not given here

PA (self-association parameter) (D33 (D37(A13K/A16K))): 5.3 min | MIC against A. baumannii strain 649 in 25% human serum (no serum: 0.1) (human serum proteins): 0.7 µM
B6: D33 (D37(A13K/A16K)) (peptide)
peptide: [dA][dL][dK][dS][dL][dL][dK][dT][dL][dS][dK][dA][dK][dA][dA][dK][dL][dK][dT][dL][dL][dK][dA][dL][dS][dK]-NH2
modifications: N-terminus assumed
SMILES: CC(C)C[C@@H](NC(=O)[C@@H](C)N)C(=O)N[C@H](CCCCN)C(=O)N[C@H](CO)C(=O)N[C@H](CC(C)C)C(=O)N[C@H](CC(C)C)C(=O)N[C@H](CCCCN)C(=O)N[C@@H](C(=O)N[C@H](CC(C)C)C(=O)N[C@H](CO)C(=O)N[C@H](CCCCN)C(=O)N[C@H](C)C(=O)N[C@H](CCCCN)C(=O)N[C@H](C)C(=O)N[C@H](C)C(=O)N[C@H](CCCCN)C(=O)N[C@H](CC(C)C)C(=O)N[C@H](CCCCN)C(=O)N[C@@H](C(=O)N[C@H](CC(C)C)C(=O)N[C@H](CC(C)C)C(=O)N[C@H](CCCCN)C(=O)N[C@H](C)C(=O)N[C@H](CC(C)C)C(=O)N[C@H](CO)C(=O)N[C@H](CCCCN)C(N)=O)[C@H](C)O)[C@H](C)O

PA (self-association parameter) [2]: 3.4 min
B7: D87 (D84K3ArgK7ArgK11ArgK18ArgK22ArgK26Arg) (peptide)
peptide: Ac-KLRSLLRTLSRAKAAKLRTLLRALSR-NH2
modifications: not fully specified; printed as Ac-KL(Arg)SLL(Arg)TLS(Arg)AKAAKL(Arg)TLL(Arg)ALs(Arg)-amide; also: D-enantiomeric residues, extent not given here

PA (self-association parameter) [3]: 2.8 min | PA (self-association parameter) [4]: 2.8 min
B8: D105 (D84K3DprK7DprK11DprK18DprK22DprK26Dpr) (peptide)
peptide: Ac-KLXSLLXTLSXAKAAKLXTLLXALSX-NH2
modifications: not fully specified (some residues); printed as Ac-KL(Dpr)SLL(Dpr)TLS(Dpr)AKAAKL(Dpr)TLL(Dpr)ALS(Dpr)-amide

PA (self-association parameter) (D37 [5]): 18.5 min | MIC against A. baumannii strain 649 in 25% human serum (no serum: 2.9) (human serum proteins): > 92.8 µM | PA (self-association parameter) (D37 [6]): 37 min
B9: D37 (peptide)
peptide: [dA][dL][dK][dS][dL][dL][dK][dT][dL][dS][dK][dA][dA][dA][dA][dA][dL][dK][dT][dL][dL][dK][dA][dL][dS][dK]-NH2
modifications: N-terminus assumed
SMILES: CC(C)C[C@@H](NC(=O)[C@@H](C)N)C(=O)N[C@H](CCCCN)C(=O)N[C@H](CO)C(=O)N[C@H](CC(C)C)C(=O)N[C@H](CC(C)C)C(=O)N[C@H](CCCCN)C(=O)N[C@@H](C(=O)N[C@H](CC(C)C)C(=O)N[C@H](CO)C(=O)N[C@H](CCCCN)C(=O)N[C@H](C)C(=O)N[C@H](C)C(=O)N[C@H](C)C(=O)N[C@H](C)C(=O)N[C@H](C)C(=O)N[C@H](CC(C)C)C(=O)N[C@H](CCCCN)C(=O)N[C@@H](C(=O)N[C@H](CC(C)C)C(=O)N[C@H](CC(C)C)C(=O)N[C@H](CCCCN)C(=O)N[C@H](C)C(=O)N[C@H](CC(C)C)C(=O)N[C@H](CO)C(=O)N[C@H](CCCCN)C(N)=O)[C@H](C)O)[C@H](C)O

PA (self-association parameter) [7]: 2.5 min
B10: D106 (D88K3DprK7DprK14DprK15DprK22DprK26Dpr) (peptide)
peptide: Ac-KLXSLLXTLSAAKXXKLATLLXALSX-NH2
modifications: not fully specified (some residues); printed as Ac-KL(Dpr)SLL(Dpr)TLSAAK(Dpr)(Dpr)KLATLL(Dpr)ALs(Dpr)-amide

— US20200129634A1
